Laboratory results: patent publication US20050064507A1, “Determining kinase specificity” (priority 2003, published 2005)

What was measured:
Format in all cases: biochemical
PKC-delta = biological target: T1, PKC-delta (Homo sapiens, UniProt Q05655); test: In vitro kinase assay: peptide phosphorylation by PKC-delta
T1 construct: purchased Calbiochem
Outline: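 Biotin-Lys-dansyl-Lys-Pro-Pro-Gly-linked proteomic peptides (12–21-residue core) phosphorylated by PKC-delta in HEPES/Triton/CaCl2/MgCl2 buffer with phosphatidyl serine and PMA, 100 μM [γ-32P]ATP, 30° C., ~10 min, stoichiometry ≤5%; streptavidin-plate capture. Signal normalized as % of best peptide substrate.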

PKC-zeta = biological target: T2, PKC-zeta (Homo sapiens, UniProt Q05513); test: In vitro kinase assay: peptide phosphorylation by PKC-zeta
T2 construct: purchased Calbiochem
T2 sequence (Q05513 1-592): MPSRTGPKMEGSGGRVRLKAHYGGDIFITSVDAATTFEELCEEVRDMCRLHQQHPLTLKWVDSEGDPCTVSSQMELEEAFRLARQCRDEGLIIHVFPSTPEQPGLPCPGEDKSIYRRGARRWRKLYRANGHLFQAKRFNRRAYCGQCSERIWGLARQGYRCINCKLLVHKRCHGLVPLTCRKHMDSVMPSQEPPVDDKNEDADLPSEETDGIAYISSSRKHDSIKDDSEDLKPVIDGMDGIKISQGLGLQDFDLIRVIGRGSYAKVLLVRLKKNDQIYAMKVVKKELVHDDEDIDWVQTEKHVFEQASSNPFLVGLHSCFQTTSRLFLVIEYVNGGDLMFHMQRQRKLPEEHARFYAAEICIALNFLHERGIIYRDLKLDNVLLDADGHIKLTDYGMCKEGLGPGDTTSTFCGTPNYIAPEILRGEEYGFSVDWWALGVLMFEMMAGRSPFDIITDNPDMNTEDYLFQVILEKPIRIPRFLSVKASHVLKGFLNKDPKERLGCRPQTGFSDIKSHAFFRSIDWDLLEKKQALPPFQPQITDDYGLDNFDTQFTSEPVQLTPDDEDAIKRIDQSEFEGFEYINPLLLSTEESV
Procedure: (§1) Catalytically active preparations of the kinases of interest were either purchased or prepared. Purchased and tested active kinase preparations including the following: PKC-alpha, PKC-delta, PKC-epsilon, PKC-zeta, PKC-mu, PKA, PKG from Calbiochem, ROK alpha/ROCK-II, active from Upstate Biotechnology, and AKT1 from Panvera.
(§2) The conditions of the kinase assay and the amount of active kinase used varied with the kinase and with the accuracy needed. For a typical experiment, 5-20 ng of kinase was used per well and each peptide pool was assayed in duplicate wells. Note that the absolute amount of kinase used was not usually a critical parameter, because the desired information related to specificity of the kinase not its absolute activity, and robustness of the assay depends on comparisons of the same amount of kinase on different peptides. The combination of kinase concentration and assay duration was modified to assure that the stoichiometry of peptide phosphorylation never exceeded 5%. The choice of kinase buffer depended on the kinase being analyzed. For studies of PKC, 100 mM HEPES, 0.05% Triton-X100, 1 mM CaCl2, 20 mM MgCl2, 0.2 mg/ml phosphatidyl serine (Avanti Polar Lipids), PMA 100 ng/ml was typically used. The lipid stock was prepared by transferring 3 mg phosphatidyl serine into iced mixture of 450 μl water plus 50 μl of 10% Triton-X100, sonicating 10 times on ice for 1 sec each.
(§3) The kinase reaction mixture was assembled by sequential addition to a tube held on ice of: 5 μl peptide (100 μM for final concentration of 10 μM), 15 μl of kinase (typically 5 ng/well, in appropriate kinase buffer), 30 μl of ATP (1 uCi/well of ^32P-gamma ATP in a stock of 167 μM cold ATP in the kinase buffer; for final concentration for 100 μM ATP). The mixture was rapidly warmed to desired reaction temperature (30° C. for PKC) and incubated for the desired duration (usually 10 minutes). The kinase assay was terminated by transfer to 4° C. water batch, and rapid addition of an equal volume (50 μl) of stop solution [0.1M ATP+0.1M EDTA in water, pH 8].
(§4) The peptides were then captured from the reaction mixture by transfer to a Reacti-Bind Streptavidin High Binding Capacity Coated Plates (HBC) (Pierce Biotechnology) as follows. The HBC plates were pre-rinsed three times with PBS/Tween PBS/Tween20 0.05% (PBS/Tween). Part of all of the reaction mixture was then transferred wells of a HBC plate pre-filled with 90 μl of phosphate-buffered saline (PBS); typically each aliquots of each phosphorylation reaction were transferred to duplicate HBC plates to assure accuracy by additional replication
(§5) For kinase assays done at the standard peptide concentration of 10 μM, the peptide concentration in the reaction mixture becomes 5 μM after addition of the stop solution; consequently 10 μl of the reaction (50 pMoles of peptide) was transferred to the HBC plate. More generally, the amount of reaction mixture transferred was estimated to be about 50 pMoles of peptide. […] The HBC plates were incubated for 0.5 to 1.5 hr at room temperature for complete binding of biotinylated peptides to plate-bound streptavidin. The HBC plates were then washed extensively with PBS/Tween. Five washes were done routinely and additional wash steps were added if the wash solution removed from the plate had measurable radioactivity as detected using a Geiger counter. This step is essential to obtaining a good the signal to noise ratio because the fraction of radioactivity incorporated in the peptides was a tiny fraction of the total in the reaction mixture. The wells were air-dried. A volume of 40-50 μl of microScint-20 (Packard Instruments) was added to each well. The plates were covered with stick-on film sheet. Radioactive emissions were measured in a TopCount NXT Microplate Scintillation and Luminescence Counter (Packard Instruments). Typically samples were counted for 5 minutes (or more) to improve the signal to noise ratio when counts were low. […]

PKC-alpha = biological target: T3, PKC-alpha (Homo sapiens, UniProt P17252); test: In vitro kinase assay: peptide phosphorylation by PKC-alpha
T3 construct: purchased Calbiochem
Procedure: as §1, §2, §3, §4, §5

T1 sequence (Q05655 whole entry): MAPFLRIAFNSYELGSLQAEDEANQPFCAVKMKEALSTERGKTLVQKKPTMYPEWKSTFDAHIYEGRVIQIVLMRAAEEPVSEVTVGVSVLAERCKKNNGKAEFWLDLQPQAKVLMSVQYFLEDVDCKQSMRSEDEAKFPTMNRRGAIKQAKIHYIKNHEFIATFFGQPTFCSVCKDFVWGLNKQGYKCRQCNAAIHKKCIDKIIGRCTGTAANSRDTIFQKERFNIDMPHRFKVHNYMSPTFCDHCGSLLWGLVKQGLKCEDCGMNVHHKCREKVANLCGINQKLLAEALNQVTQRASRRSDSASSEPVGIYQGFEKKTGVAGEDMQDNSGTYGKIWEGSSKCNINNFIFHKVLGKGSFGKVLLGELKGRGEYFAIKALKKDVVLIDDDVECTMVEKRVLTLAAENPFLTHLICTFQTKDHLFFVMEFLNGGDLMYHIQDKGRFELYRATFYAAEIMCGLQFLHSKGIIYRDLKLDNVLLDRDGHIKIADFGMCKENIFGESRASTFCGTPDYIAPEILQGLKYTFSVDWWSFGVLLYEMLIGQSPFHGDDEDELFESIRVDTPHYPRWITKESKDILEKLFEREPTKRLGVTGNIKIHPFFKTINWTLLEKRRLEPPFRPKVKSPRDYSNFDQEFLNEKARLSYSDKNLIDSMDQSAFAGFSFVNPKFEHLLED

Row | Substance | phosphorylation by PKC-delta (PKC-delta; peptide concentration 1 uM) | phosphorylation by PKC-delta (PKC-delta; peptide concentration 10 uM) | phosphorylation by PKC zeta (PKC-zeta; peptide concentration 1 uM) | phosphorylation by PKC zeta (PKC-zeta; peptide concentration 10 uM) | phosphorylation by PKC alpha (PKC-alpha; peptide concentration 1 uM) | phosphorylation by PKC alpha (PKC-alpha; peptide concentration 10 uM)
1 | 155 (RWDKRRWRKIPKRPGSVHRT) [compound 155] | 30 | 23 | 19 | 6 | 10 | 12
2 | 156 (SAQITIPKDGQKRKKSLRKK) [compound 156] | 29 | 31 | 15 | 44 | 9 | 11
3 | 157 (PSPSNETPKKKKKRFSFKKS) [compound 157] | 27 | 35 | 3 | 6 | 10 | 11
4 | 158 (VQMTWSYPDEKNKRASVRRR) [compound 158] | 18 | 33 | 11 | 72 | 16 | 11
5 | 159 (LYARLARAYRRSQRASFKRA) [compound 159] | 15 | 12 | 25 | 41 | 21 | 19
6 | 160 (PFEVVWYKDKRQLRSSKKYK) [compound 160] | 25 | 31 | 15 | 57 | 9 | 7
7 | 161 (KYKAFIRIPIPTRRHTFRRQ) [compound 161] | 22 | 14 | 15 | 9 | 22 | 8
8 | 162 (KKKFSFKKPFKLSGLSFKRN) [compound 162] | 21 | 13 | 7 | 4 | 17 | 19
9 | 163 (PPRTPGWHQLQPRRVSFRGE) [compound 163] | 13 | 21 | 7 | 26 | 30 | 10
10 | 164 (TEGKMARVAWKGKRRSKARK) [compound 164] | 18 | 26 | 3 | 2 | 6 | 6
11 | 165 (TEEKSKKRKKKHRKNSRKHK) [compound 165] | 25 | 19 | 1 | 2 | 15 | 10
12 | 166 (MAQIERGEARIQRRISIKKA) [compound 166] | 13 | 29 | 2 | 9 | 22 | 7
